According to US20220380801A1, “TRIPARTITE SYSTEMS FOR PROTEIN DIMERIZATION AND METHODS OF USE” (priority 2019, published 2022):

Legend:
HCV NS3/4A PR K136N = experiment: Biacore 8K binding kinetics, mutant protease to PRSIM_23; design: species or system Hepatitis C virus subtype 1a
Protocol: (§1) The scFv and Tn3 PRSIM binding molecules were covalently immobilised to a CM5 chip surface using standard amine coupling techniques at a concentration of 1 μg/ml in 10 mM sodium acetate pH 4.5.
(§2) The HCV NS3/4A PR (S139A), or BSA control, was diluted 1:4 (1.25-20 nM)±10 nM simeprevir in 10 mM Hepes pH 7.4, 150 mM NaCl, 0.05% Surfactant P20, 0.01% DMSO, ensuring constant simeprevir and DMSO concentration. The samples were flowed over the chip at 50 μl/min using single cycle kinetics, with 120 sec association and 600 sec dissociation. The chip surface was regenerated with two 20 sec pulses of 10 mM Glycine-HCl pH 3.0. The final sensorgrams were analysed using the Biacore 8K Evaluation Software and the affinity constant KD was determined using a 1:1 binding model. The same method was used for measuring the affinity of the HCV NS3/4A PR mutants for PRSIM_23 with minor deviations. The mutants were diluted 1:4 (2.5-40 nM)±simeprevir in 10 mM Hepes pH 7.4, 150 mM NaCl, 0.05% Surfactant P20, 0.08% DMSO, ensuring constant simeprevir and DMSO concentration. The samples were flowed over the chip at 50 μl/min using single cycle kinetics, with 180 sec association and 600 sec dissociation.

HCV NS3/4A PR D168E = experiment: as above; design: species or system Hepatitis C virus subtype 1a; details: 20 nM simeprevir
Protocol: as §1, §2

HCV NS3/4A PR K136D = experiment: as above; design: species or system Hepatitis C virus subtype 1a
Protocol: as §1, §2

[1] = tested on: luciferase gene expression in HEK293 cells; experiment: AAV transduction, inducible luciferase transgene in trans; type: cell-based, human; details: two separate AAV8 preparations, simeprevir
Excerpt: AAV expression vectors were generated by subcloning specific promoter and transgene elements into an intermediate vector derived from pAAV-CMV (Takara) in which the CMV promoter downstream of the 5′ITR was removed and a WPRE element and SV40 polyA sequence were inserted upstream of the 3′ ITR.
To generate AAV encoding an inducible luciferase transgene, the ZHFD1-luciferase cassette was amplified by PCR from pZFHD1-Luciferase provided in the iDimerize regulated transcription system (Takara) and subcloned into the intermediate AAV vector. […]
Recombinant AAV (rAAV) was produced by triple-transfection of 40 T-175 cm^2 flasks containing HEK293 T-17 cells at 80% confluency using a standard helper-free approach. […] Fractions were taken from the ultraclear centrifuge tubes by piercing the tube with a 19 gauge syringe in the 60% layer below the clear band representing the virus and the purity of each fraction was assessed by SDS-PAGE of each fraction and subsequent Sypro Ruby analysis. […]
All rAAV transduction assays were performed in adherent HEK293 cells cultured in 96-well plates. Cells enzymatically dissociated from a tissue culture flask were counted and plated at 2.5×10^4 cells/well in a 96-well plate. […] For luminescence assays, SteadyGlo luciferase substrate (Promega) was added and luminescence was quantified with an Envision plate reader. […]

B1: PRSIM_23: Tn3 protein specific for HCV NS3/4A PR (S139A):simeprevir complex, SEQ ID NO: 5 (protein)
chain: RLDAPSQIEVKDVTDTTALITWVDPRYDDIWWFELTYGIKDVPGDRTTIKLYLNDPYYSIGNLKPDTEYEVSLISYTGDSYSRSGSNPAKITFKTGL
modifications: PRSIM_23
decrease in affinity for PRSIM_23 compared to ‘Wt’ (HCV NS3/4A PR K136N; K136N versus ‘WT’ (S139A)): 6-7 fold
Rmax (HCV NS3/4A PR K136N; K136N, 40 nM simeprevir): 198 RUs
ka (HCV NS3/4A PR K136N; K136N, 40 nM simeprevir): 5.31e+08 M⁻¹ s⁻¹
kd (HCV NS3/4A PR K136N; K136N, 40 nM simeprevir): 20.4 s⁻¹
Rmax (HCV NS3/4A PR D168E): 199 RUs
ka (HCV NS3/4A PR D168E): 1.47e+09 M⁻¹ s⁻¹
kd (HCV NS3/4A PR D168E): 21.4 s⁻¹
decrease in affinity for PRSIM_23 compared to ‘Wt’ (HCV NS3/4A PR K136D; K136D versus ‘WT’ (S139A)): 6-7 fold
Rmax (HCV NS3/4A PR K136D; K136D, 800 nM simeprevir): 168 RUs
ka (HCV NS3/4A PR K136D; K136D, 800 nM simeprevir): 1.69e+10 M⁻¹ s⁻¹
kd (HCV NS3/4A PR K136D; K136D, 800 nM simeprevir): 373 s⁻¹
induction of luciferase activity [1]: 228 fold
